# From article PMC3118794
# Tests used:
# [1] = biological target: “ghost” fiber reconstituted with labeled Tm (rabbit (endogenous in psoas muscle fibers) | not stated) (UniProt P68135); assay: reconstitution into ghost muscle fibers, washes, SDS-PAGE; 20 µM labeled Tm added to ghost fibers in RB buffer for 15 hours at 4°C, then 20 µM troponin complex and 20 µM S1; unbound proteins removed by repeated washes with rigor buffer; 12% SDS gel quantified; conditions: scale: actin per TnI
# [2] = biological target: actin of “ghost” muscle fibers (rabbit (endogenous in psoas muscle fibers)) (UniProt P68135); assay: as above; conditions: scale: actin per S1
# Chain of skeletal troponin complex (P02586 whole entry): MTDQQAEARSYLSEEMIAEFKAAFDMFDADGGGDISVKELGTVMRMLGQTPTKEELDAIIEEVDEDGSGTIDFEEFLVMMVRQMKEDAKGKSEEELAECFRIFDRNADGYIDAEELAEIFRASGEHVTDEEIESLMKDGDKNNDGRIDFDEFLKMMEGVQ
# Chain of skeletal troponin complex (P02643 whole entry): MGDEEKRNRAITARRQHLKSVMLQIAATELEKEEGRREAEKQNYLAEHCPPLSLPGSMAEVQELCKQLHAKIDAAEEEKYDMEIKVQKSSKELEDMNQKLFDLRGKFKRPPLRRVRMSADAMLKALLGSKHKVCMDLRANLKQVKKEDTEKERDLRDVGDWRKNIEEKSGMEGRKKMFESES
# Chain of skeletal troponin complex (P02641 whole entry): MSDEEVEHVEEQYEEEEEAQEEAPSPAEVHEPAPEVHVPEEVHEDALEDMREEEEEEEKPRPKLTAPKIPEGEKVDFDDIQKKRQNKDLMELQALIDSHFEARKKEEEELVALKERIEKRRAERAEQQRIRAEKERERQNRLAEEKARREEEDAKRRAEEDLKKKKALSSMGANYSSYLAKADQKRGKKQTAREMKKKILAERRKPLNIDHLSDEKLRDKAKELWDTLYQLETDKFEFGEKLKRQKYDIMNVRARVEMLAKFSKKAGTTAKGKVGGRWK
# Chain of myosin subfragment-1 (domain or fragment) (Q28641 whole entry, the tested form may be a part): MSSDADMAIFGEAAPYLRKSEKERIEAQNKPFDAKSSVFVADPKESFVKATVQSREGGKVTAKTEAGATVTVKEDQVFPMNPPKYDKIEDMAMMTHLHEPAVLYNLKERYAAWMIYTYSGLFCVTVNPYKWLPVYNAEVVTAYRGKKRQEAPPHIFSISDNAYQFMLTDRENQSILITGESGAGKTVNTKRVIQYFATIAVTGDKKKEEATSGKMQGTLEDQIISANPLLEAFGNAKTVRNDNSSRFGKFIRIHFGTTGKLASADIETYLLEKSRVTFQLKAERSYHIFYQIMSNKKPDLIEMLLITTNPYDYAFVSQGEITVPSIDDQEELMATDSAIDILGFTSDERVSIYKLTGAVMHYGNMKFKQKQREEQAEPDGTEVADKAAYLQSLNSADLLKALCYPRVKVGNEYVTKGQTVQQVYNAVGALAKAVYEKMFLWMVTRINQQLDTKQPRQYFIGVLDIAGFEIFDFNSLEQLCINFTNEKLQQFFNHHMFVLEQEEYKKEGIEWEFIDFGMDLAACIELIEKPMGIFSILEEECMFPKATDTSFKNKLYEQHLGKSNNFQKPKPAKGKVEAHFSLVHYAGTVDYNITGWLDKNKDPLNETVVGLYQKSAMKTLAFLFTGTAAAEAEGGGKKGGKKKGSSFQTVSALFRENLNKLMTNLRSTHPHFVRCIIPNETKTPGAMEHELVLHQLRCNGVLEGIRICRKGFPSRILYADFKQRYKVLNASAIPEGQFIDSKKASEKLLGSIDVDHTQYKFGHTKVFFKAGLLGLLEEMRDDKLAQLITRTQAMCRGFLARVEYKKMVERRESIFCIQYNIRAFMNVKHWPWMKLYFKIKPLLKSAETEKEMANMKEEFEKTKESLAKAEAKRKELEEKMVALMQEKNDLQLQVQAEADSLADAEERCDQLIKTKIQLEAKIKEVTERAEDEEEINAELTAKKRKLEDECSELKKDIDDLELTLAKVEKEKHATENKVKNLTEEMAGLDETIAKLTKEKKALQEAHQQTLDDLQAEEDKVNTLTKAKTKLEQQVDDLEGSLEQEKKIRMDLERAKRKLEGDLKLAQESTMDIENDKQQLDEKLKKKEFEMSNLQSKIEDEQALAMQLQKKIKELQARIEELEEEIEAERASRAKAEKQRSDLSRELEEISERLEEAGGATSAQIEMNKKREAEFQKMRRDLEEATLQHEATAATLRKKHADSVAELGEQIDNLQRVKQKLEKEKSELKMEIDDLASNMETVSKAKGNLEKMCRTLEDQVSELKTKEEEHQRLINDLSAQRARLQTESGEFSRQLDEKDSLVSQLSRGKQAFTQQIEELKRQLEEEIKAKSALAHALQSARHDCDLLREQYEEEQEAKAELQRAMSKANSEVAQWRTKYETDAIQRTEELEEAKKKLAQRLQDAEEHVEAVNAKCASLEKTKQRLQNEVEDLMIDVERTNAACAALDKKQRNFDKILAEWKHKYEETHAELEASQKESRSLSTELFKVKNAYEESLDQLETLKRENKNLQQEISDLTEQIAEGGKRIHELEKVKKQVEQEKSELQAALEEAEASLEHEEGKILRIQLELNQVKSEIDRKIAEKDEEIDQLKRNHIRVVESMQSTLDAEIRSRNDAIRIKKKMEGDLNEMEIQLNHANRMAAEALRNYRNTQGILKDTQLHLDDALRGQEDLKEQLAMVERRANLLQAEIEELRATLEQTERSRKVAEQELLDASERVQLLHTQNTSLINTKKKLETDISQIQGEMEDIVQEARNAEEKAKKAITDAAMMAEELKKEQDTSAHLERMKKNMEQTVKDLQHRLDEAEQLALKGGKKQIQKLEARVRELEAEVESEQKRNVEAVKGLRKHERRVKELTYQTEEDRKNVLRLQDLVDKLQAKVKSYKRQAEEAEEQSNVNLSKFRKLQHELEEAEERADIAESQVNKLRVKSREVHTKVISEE
ratio of TnI:actin in the reconstituted fiber (SDS-PAGE) [1],ratio of the S1:actin intensity in reconstituted ghost fibers (SDS-PAGE) [2],Substance
4.5,–,skeletal troponin complex (from UniProt P02586 1-160; P02643 1-182; P02641 1-279)
–,1,myosin subfragment-1 (domain or fragment)
